Laboratory results reported in patent publication US10442866 (BEIJING MABWORKS BIOTECH, dated 2019).

T1: rhesus OX40 expressed on HEK293A cells (rhesus, UniProt P43489 29-277 (human entry))
T1 construct: also called HEK293A/rhOX40; HEK293A/rhesusOX40 cells
T1 chain: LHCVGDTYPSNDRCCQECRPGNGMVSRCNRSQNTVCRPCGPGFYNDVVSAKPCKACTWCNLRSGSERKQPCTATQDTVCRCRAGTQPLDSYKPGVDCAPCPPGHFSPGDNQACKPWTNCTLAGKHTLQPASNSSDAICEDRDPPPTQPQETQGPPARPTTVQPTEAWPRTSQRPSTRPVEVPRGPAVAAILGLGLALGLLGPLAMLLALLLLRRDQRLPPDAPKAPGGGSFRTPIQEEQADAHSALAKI

T2: human HVEM-mFc (TNFRSF14, ACRO, Cat#: HVM-H5255) (human, UniProt Q92956 39-202)
T2 construct: bought protein; also called HVEM(TNFRSF14); not shown: mouse Fc (mFc)
T2 sequence (looked up): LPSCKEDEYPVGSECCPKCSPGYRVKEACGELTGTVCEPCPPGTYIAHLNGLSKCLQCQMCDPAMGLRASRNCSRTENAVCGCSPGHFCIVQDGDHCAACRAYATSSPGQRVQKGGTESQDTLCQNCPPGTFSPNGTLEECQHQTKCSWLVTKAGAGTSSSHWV

T3: human DR6 (TNFRSF21, Sino Biological, Cat#: 10175-H08H) (human, UniProt O75509 42-349)
T3 construct: bought recombinant protein
T3 sequence (looked up): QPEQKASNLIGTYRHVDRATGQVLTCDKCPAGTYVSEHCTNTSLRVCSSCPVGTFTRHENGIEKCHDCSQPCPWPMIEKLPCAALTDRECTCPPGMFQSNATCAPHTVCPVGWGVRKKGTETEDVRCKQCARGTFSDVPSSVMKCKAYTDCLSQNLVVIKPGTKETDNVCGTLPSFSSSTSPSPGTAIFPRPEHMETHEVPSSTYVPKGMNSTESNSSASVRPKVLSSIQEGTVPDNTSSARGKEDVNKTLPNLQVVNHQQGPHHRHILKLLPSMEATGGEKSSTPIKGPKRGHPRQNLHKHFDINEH

T4: human NGFR (TNFRSF16, Sino Biological, Cat#: 13184-H08H) (human, UniProt P08138 29-250)
T4 construct: bought recombinant protein
T4 sequence (looked up): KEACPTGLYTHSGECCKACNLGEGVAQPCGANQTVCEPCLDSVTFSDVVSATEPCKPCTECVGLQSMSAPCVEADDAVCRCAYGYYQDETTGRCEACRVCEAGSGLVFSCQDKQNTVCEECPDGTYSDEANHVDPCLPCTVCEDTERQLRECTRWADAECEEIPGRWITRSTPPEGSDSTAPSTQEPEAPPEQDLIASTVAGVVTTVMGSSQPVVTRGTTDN


Key:
[1] = biological target: truncant 2-mFc (containing CRD/3/4); assay: ELISA with recombinant mFc-tagged OX40 ECD proteins, OD450
Excerpt: (§1) There are four individual cysteine enriched domains (CRD) in OX40 extracellular domain (ECD), namely CRD1, CRD2, CRD3 and CRD4, respectively. Based on the structure of OX40, four recombinant OX40 proteins were generated, i.e., the full-length OX40 ECD (containing CRD1/2/3/4) (SEQ ID NO.: 38), truncant 1-mFc (containing CRD2/3/4) (SEQ ID NO.: 39), truncant 2-mFc (containing CRD/3/4) (SEQ ID NO.: 40) and truncant 3-mFc (containing CRD/4) (SEQ ID NO.: 41). All the recombinant proteins were linked with a signal peptide (SEQ ID NO.: 42) at the N terminus for protein secretion and a mFc-tag (SEQ ID NO.: 43) at the C terminus for ELISA assay. DNA sequences were synthesized and subcloned into pcDNA3.1 vector. The expression and purification of the recombinant proteins were carried out according to the protocols in Example 10. ELISA assay was performed to assess binding capacity of mAbs to recombinant OX40 proteins, following the protocol in Example 2.

[2] = biological target: truncant 3-mFc (containing CRD/4); assay: as above
Excerpt: as §1

[3] = biological target: full length OX40 ECD-mFc (containing CRD1/2/3/4); assay: as above
Excerpt: as §1

[4] = biological target: truncant 1-mFc (containing CRD2/3/4); assay: as above
Excerpt: as §1

[5] = biological target: T1, rhesus OX40 expressed on HEK293A cells; assay: FACS on HEK293A/rhesus OX40 cells, MFI (panel without title; monkey OX40 by the legend)
Protocol: Briefly, 10^5 HEK293A cells were seeded into each well of the 96-well plates and serially diluted anti-OX40 antibodies were added to the plates. After incubated at 4° C. for 1 hour, plates were washed 3 times with PBST. Then, an APC coupled Goat Anti-Mouse IgG (BioLegen, US, Cat#: 405308) diluted 500× was added to the plates. After incubation at 4° C. for 1 hour, the plates were washed with PBS for 3 times and then cell fluorescence was monitored using a FACS machine (BD).
Example 15 Humanized Anti-OX40 Antibodies Bound to Human or Rhesus OX40 Expressed on HEK293A Cells The humanized anti-OX40 antibodies were also tested for their ability of binding to HEK293A/huOX40 cells or HEK293A/rhOX40 cells, following the FACS analysis protocol as described in Example 5.

[6] = biological target: T2, human HVEM-mFc (TNFRSF14, ACRO, Cat#: …); assay: ELISA on coated recombinant human TNFRSF protein, OD450
Protocol: (§2) ELISA assays were performed to determine the binding specificity of anti-OX40 antibodies to human OX40, in comparison to other human TNFRSF members with homologous amino acid sequences, following the protocol described in Example 2.

[7] = biological target: T5, human 4-1BB (TNFRSF9, ACRO, Cat#:41B-H522a) (human, UniProt Q07011 24-186); assay: as above
T5 construct: bought recombinant protein
Protocol: as §2

[8] = biological target: T6, human CD40-his (TNFRSF5, Sino Biological, Cat#:10774-H08H) (human, UniProt P25942 21-193); assay: as above
T6 construct: bought protein; also called recombinant human CD40 (TNFRSF5); not shown: His tag
Protocol: as §2

[9] = biological target: T3, human DR6 (TNFRSF21, Sino Biological, …); assay: as above
Protocol: as §2

[10] = biological target: T4, human NGFR (TNFRSF16, Sino Biological, …); assay: as above
Protocol: as §2

Sequence of full length OX40 ECD-mFc (containing CRD1/2/3/4) (chain, as listed by the source limits assumed): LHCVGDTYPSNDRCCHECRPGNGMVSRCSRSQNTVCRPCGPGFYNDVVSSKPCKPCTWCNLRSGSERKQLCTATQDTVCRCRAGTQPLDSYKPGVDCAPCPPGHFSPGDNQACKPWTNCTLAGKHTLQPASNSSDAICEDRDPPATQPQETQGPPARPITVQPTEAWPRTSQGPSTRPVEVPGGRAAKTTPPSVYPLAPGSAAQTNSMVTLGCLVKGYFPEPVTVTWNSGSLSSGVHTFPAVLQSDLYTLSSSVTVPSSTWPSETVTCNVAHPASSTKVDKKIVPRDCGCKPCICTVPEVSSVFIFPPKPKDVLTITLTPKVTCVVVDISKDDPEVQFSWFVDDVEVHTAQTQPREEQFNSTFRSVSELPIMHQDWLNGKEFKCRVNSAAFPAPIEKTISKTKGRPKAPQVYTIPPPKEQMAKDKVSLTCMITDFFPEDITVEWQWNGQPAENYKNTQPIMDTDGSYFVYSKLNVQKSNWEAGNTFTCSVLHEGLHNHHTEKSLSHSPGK
Sequence of truncant 1-mFc (containing CRD2/3/4) (chain, as listed by the source limits assumed): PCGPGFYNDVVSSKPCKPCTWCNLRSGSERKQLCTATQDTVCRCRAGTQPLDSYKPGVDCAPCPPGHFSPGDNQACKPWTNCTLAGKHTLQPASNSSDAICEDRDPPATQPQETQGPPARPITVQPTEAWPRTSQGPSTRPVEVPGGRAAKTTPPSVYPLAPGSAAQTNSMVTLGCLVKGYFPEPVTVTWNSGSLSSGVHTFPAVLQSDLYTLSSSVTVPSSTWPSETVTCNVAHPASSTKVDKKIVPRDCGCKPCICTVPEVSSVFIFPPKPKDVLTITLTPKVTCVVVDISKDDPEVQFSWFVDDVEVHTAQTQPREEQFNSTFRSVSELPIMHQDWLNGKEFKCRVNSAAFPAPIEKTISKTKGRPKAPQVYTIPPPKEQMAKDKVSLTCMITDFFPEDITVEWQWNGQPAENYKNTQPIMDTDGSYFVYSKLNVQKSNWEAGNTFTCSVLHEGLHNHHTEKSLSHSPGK
Sequence of truncant 2-mFc (containing CRD/3/4) (chain, as listed by the source limits assumed): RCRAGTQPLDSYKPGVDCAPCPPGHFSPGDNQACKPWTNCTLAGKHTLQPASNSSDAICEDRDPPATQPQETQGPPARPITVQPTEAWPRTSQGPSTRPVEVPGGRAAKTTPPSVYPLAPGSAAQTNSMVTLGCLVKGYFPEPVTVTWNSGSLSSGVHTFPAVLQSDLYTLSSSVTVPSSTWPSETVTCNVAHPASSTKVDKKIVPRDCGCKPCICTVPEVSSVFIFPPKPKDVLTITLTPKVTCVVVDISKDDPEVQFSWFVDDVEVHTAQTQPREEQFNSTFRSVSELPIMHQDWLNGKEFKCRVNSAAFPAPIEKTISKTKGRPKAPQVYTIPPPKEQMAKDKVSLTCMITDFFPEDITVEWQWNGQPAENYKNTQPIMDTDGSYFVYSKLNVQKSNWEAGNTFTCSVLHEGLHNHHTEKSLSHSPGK
Sequence of truncant 3-mFc (containing CRD/4) (chain, as listed by the source limits assumed): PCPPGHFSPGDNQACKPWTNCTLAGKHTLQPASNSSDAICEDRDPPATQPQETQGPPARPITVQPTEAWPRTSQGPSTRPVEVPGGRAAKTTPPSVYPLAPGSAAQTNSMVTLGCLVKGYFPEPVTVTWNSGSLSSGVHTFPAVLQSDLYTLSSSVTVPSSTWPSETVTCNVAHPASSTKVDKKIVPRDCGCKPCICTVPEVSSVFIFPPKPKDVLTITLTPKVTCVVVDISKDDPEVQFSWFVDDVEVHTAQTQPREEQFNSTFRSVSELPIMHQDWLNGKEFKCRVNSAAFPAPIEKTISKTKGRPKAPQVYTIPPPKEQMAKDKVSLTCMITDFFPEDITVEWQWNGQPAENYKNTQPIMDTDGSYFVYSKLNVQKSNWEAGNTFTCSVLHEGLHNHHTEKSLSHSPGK
T6 sequence (P25942 21-193 limits assumed): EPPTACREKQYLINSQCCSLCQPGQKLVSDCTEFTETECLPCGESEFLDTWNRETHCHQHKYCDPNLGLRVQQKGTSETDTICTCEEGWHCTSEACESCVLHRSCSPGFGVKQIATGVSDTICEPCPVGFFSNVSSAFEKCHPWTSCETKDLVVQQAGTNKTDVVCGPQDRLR

Row | Binder | binding result [1] | binding result [2] | binding result [3] | binding result [4] | binding result [5] | binding result [6] | binding result [7] | binding result [8] | binding result [9] | binding result [10]
1 | 68C8-VH2VL3 (antibody, human IgG1, kappa, V domains shown, humanized; also called 68C8-H2L3; 68C8H2L3) VH: QVQLVQSGAEVKKPGASVKVSCKVSGDTFTSYWITWVRQRPGKGLEWMGDIHPGSGSTNNNEKFKNRVTMTVDTSTDTAYMELSSLRSEDTAVYYCATLRPYYFVYWGQGTLVTVSS VL: DIQMTQSPSSLSASVGDRVTITCRASQDISNYLNWYQQKPGKTVKLLIYYTSRLLSGVPSRFSGSGSGTDYTLTISSLQPEDFATYFCQQGNTLPLTFGQGTRLEIKR | binds | no binding | binds | binds | binds | no binding (tested: about 10000 ng/mL (log about 4)) | no binding (tested: about 10000 ng/mL (log about 4)) | no binding (tested: about 10000 ng/mL (log about 4)) | no binding (tested: about 10000 ng/mL (log about 4)) | no binding (tested: about 10000 ng/mL (log about 4))
2 | 71H8-VH2VL3 (antibody, human IgG1, kappa, V domains shown, humanized; also called 71H8-H2L3; 71H8H2L3) VH: QVQLVQSGAEVKKPGASVKVSCKVSGYTFTSYWITWVRQRPGKGLEWMGDIYPGSGSTNQNEKFKSRVTMTVDTSTDTAYMELSSLRSEDTAVYYCATLRPYYFVYWGQGTLVTVSS VL: DIQMTQSPSSLSASVGDRVTITCRASQDISNYLNWYQQKPGKTVKLLIYYTSRLLSGVPSRFSGSGSGTDYTLTISSLQPEDFATYFCQQGNTLPLTFGQGTRLEIKR | binds | no binding | binds | binds | binds | no binding (tested: about 10000 ng/mL (log about 4)) | no binding (tested: about 10000 ng/mL (log about 4)) | no binding (tested: about 10000 ng/mL (log about 4)) | no binding (tested: about 10000 ng/mL (log about 4)) | no binding (tested: about 10000 ng/mL (log about 4))
